According to patent US20060239966A1:

How the values were obtained:
[1] = molecular target: GFRα2/Fc fusion protein (R&D Systems); assay: GFRα2 ELISA: GFRα2/Fc on anti-human Fc plate, Ret-AP detection; conditioned medium of transfected HiB5 cells
[2] = molecular target: GFRα2/Fc fusion protein (R&D Systems); assay: GFRα2 ELISA: GFRα2/Fc on anti-human Fc plate, Ret-AP detection; conditioned medium of transfected CHO cells
[3] = molecular target: GFRα2/Fc fusion protein (R&D Systems); assay: GFRα2 ELISA: GFRα2/Fc on anti-human Fc plate, Ret-AP detection; conditioned medium of transfected HEK293 cells
[4] = molecular target: GFRα2/Fc fusion protein (R&D Systems); assay: GFRα2 ELISA: GFRα2/Fc on anti-human Fc plate, Ret-AP detection; conditioned medium of transfected ARPE-19 cells

| fold higher GFRα2 binding activity of conditioned medium (wt construct set to 1) [1] [fold] | fold higher GFRα2 binding activity of conditioned medium (wt construct set to 1) [2] [fold] | fold higher GFRα2 binding activity of conditioned medium (wt construct set to 1) [3] [fold] | fold higher GFRα2 binding activity of conditioned medium (wt construct set to 1) [4] [fold] | Binder |
| --- | --- | --- | --- | --- |
| 7.5 | 4.1 | 90 | 117 | Neurturin secreted from cells transfected with the dpro-NTN construct (wt NTN signal peptide fused to human mature NTN, no pro-region) (ligand) ARLGARPCGLRELEVRVSELGLGYASDETVLFRYCAGACEAAARVYDLGLRRLRQRRRLRRERVRAQPCCRPTAYEDEVSFLDAHSRYHTVHELSARECACV |
| 162 | 66 | 278 | 771 | Neurturin secreted from cells transfected with the IgSP-NTN construct (mouse immunoglobulin heavy chain signal peptide fused to human mature NTN) (ligand) ARLGARPCGLRELEVRVSELGLGYASDETVLFRYCAGACEAAARVYDLGLRRLRQRRRLRRERVRAQPCCRPTAYEDEVSFLDAHSRYHTVHELSARECACV |
